Test results as given in a protein production outcome set (Wang et al. 2014).

Experiment: label from the status in PepcDB records

| Sequence | protein production |
| --- | --- |
| MQMMEQFYPKVSIVIPVYNGSDYMREAIDSALGQTYGNIEVIVVNDGSSDGGLTHEIALSYGGNIRYFAKENGGVASALNFAIRMMDGEYFSWLSHDDIYYPNKIETQIGYLAEHDRNAILYSDFELIDCLSKVIKPVNAGEIPPEQFLYNLITIGHLNGCTLLVPKRCFEETGFFDESLRSTQDYALWFTFAQKYRFEQIRKVLVKYRTHSNQGSYVIPTHSQEVNDLHIWFLEEASERGLLPIPDEGASRFFLEVAGIYKKRGIYRAADYSCSMALRHMRDEGGLALLRELPRVAYLKYYFRKKQFKSYLRELRRSTVRRSLLEHHHHHH | not failed |
| MQNELQKYDDTINIAFFGLDRRQKTDISRSDSIMILTMDPTHKKLKLSSIMRDTYVNVDGHGMTKITHAYAYGGPQLAIKTINENFNLNIKDYVTVDFYGLEKIIDKLNGVEVDVQPDEVNYLNSYIDEVSKYEKVTPNHVSSAGKQLLDGRQAVAYSRIRYTAGGDFQRTERQRTVLMAVFNKMKAQGKSNMLSMMDELLPYAETDLGSLDIAKYGAKFLSSNIDSIDQERFPVDGYCSGITVDNVWYLKTDLGVTSDQMKKYIFEDVKPTPKASLVNIPAKLEHHHHHH | not failed |
| MQNTIIQKAVNKDLNSILEITKDALNAMKTMNFHQWDENYPNEIVFQEDIQAQELYVFKENDEILGFICINEKFKPEFYKQVIFNKNYDDKAFYLHRLAVKQNAKGKGVAQKLLNFCENFALENHKASLRADTHSKNFPMNSLFKKLDFNFCGNFDIPNYQ | failed |
| MQNTIIQKAVNKDLNSILEITKDALNAMKTMNFHQWDENYPNEIVFQEDIQAQELYVFKENDEILGFICINEKFKPEFYKQVIFNKNYDDKAFYLHRLAVKQNAKGKGVAQKLLNFCENFALENHKASLRADTHSKNFPMNSLFKKLDFNFCGNFDIPNYQDPFLAYEKILNQKAF | not failed |
| MQNTKLYSLTLIALGAAIIAVLSPLSIPIGIVPVTLQTLAVGLVATVLKARETFFAILLYLLLGFIGIPVFTGGTSGIAVLFGPTGGFLIAFLIMGTLISFGLHQINYKTIPAFIINIVGHLLMLVIGTLWLKFFTNVDWSLALKLGFTPFVIVEIIKAVLVTIFGLALIRALSHTNKYFTN | failed |
| MQPQNIFDNEVFFQGYKKLRENPNSANILEEKPAIFSLLPELTGKKVLDLGCGYGENCNMFSKMGANKVVGIDVSSKMLAIANNDNSGDNIFYENMCMEDIFCINEKFDVVVSSLAVHYINDFNKLVCNVNSLLKDNGIFVFSQEHPLTTAPKNGARWFKNVDGRIAHYVLTDYATSGERTVSWIVDGITKYHRTFSDIVNALIDAGFIIEKMLEPVPTKEIIERDPSSAKDLHKPNFLVTRARKK | failed |
| MQPTTRLSFSQRHPFIFGFLLIMVAVALFTGATATFRHLTDAGSFGGPRIGIVRIEGMIGDVRKTLEWMRKLAEDRTVRGVLVRVDSPGGAVAPSQELHDAVKRLAADKPVVVSMGSLAASGGLMVSTGATRIVANPATITGSIGVKMEMPNVQGLMDKIGVARQTLVSGDLKDAGSPFRAMSEAERAYFQSIIMEMYGQFVSMIAEDRNIPVEKVRSFADGRILTGSQALELGLVDKLGSEAAAMDVLLALVDLKGEKPVFIEPPKERSWVREVLESALGIAPPQNMGQPAFLYY | failed |
| MQQALAFVARHGRLGLMVGLGAGLALPGLAAVMRPWIPQLVALLLFLTAFRIGPVDAAGSLADLTRTARRVLVLQLALPILFLLGLRLLGLPVTPLALVLALVLAAPSVTGSANFTILLAQDPAPALRLLILGTALLPLTAIPVFWLLPAFGDPAEVFGAALRLLGVILLAAGCGFALRHWGARQLSDLNRRAMDGLTVIALAVIVIALMSAVRPAMTERPAELAFWLLAAFAINLGGQTLCYLTLRATGGADPVPTSIVAGNRNFALFFVALPSEVTEPLLIFLGCYQFPMYLTPTLMRRLYDPV | failed |
| MQRGSRQLYLGDPATDKLQVPEMPMQVLTAFVPGMEVAISAISSYLSTKKMSEGGAGPLLQKRRPNTRKLWSEGRVQPRPFCVLSGLAPPRSRPGPWGPFKAASWPAGTCFAPSDAAEVAASPLRRRGDCWEGRRDGGSETSSRSRIRVKRDRSKSQSRTKAEGAGRRGPVGPGDPVRPDGEKRLQARRPPAPPLASTDRKTMATMVLPREEKLSQDEIVLGTKAVIQGLETLRGEHRALLAPLASHEAGEAEPGSQERCLLLRRSLEAIELGLGEAQVILALSSHLGAVESEKQKLRAQVRRLVQENQWLREELAGTQQKLQRSEQAVAQLEEEKQHLLFMSQIRKLDEDASPNEEKGDVPKDSLDDLFPNEDEQSPAPSPGGGDVAAQHGGYEIPARLRTLHNLVIQYASQGRYEVAVPLCKQALEDLEKTSGHDHPDVATMLNILALVYRDQNKYKDAAHLLNDALAIREKTLGKDHPAVAATLNNLAVLYGKRGKYKEAEPLCKRALEIREKVLGKFHPDVAKQLSNLALLCQNQGKAEEVEYYYRRALEIYATRLGPDDPNVAKTKNNLASCYLKQGKYQDAETLYKEILTRAHEKEFGSVNGENKPIWMHAEEREESKDKRRDSAPYGEYGSWYKACKVDSPTVNTTLRSLGALYRRQGKLEAAHTLEDCASRSRKQGLDPASQTKVVELLKDGSGGRGDRRGSRDVAGGAGPRSESDLEESGPAAEWSGDGSGSLRRSGSFGKLRDALRRSSEMLVRKLQGGGPQEPPNSRMKRASSLNFLNKSVEEPVQPGGTGLSDSRTLSSSSMDLSRRSSLVG | failed |
| MQRIMVIGGPGSGKSTLGRKLGARLGLPVVHMDPIYWLGDWVERDKAEAMRMAKEVADGSQWVFEGNHFASMAYRAERADLIVFLDMPRVLRMWRILWRSLRYYGRTRPDMGPNCPERFNRAFLKFCWTYDREGRLRALGFVDDWRDRRRVRILTSRRQVAAFLVEIDRQLEHHHHHH | failed |
| MQRLKTVFILFIAFLFFSCSGKTNEQAFFKELSKIDLQIAEGYQAKALKSLKRLQKKAVNSTNYVSIVKRQLKLNSIPDALISLQTGIKKIPDSPELSALLTSILIDSGKPAEALPYCEKLKDTPYASLGAEASILSDIALNSFNSDFSLLKAAYDKTENQVFLKNAAIVLAAKGRLREASNLRYNIPNDVAPEHPFFWSCIVYDLGVFDSIFGDLYFSLVYADKDGGEGKTAENARLHLMLAADAAYGQGDTERARAFWQAAADRSPEASPIVFYDLALTAPDEKERVDLLIECIDLYPDFYPVIARYVREDIALRELNSQDELSAYLESKGFYSIKMEETYFTSPKMTYKPEDLLARAMKNPNFDQRFILEEFRYNQITDKTYASKARGKADMWKILEKYGKESIIREYAKWYFAQSGDFNACLSVSEIGKRYEDSFYAGINSALSGDFENAVSSFAASAQVSAYAYASTVNSAYMYYMSGKTSEAVDTYSLAASMTQDKKRQSMLHYEIASIFYERKAYDRAISVLGYALELNPKNYQAASLLKKLKEFN | failed |
| MQRLQHYYQCFLAQLKNFDGIPALLLRLYLAPVFIMAGFSKTQMLNEEVTGFSAIMADPNIIAWFGNSDWGLGLPFPALLANLVILVEFFGGWFLLFGALTRLISIPLMFTMIVAATSVHADNGWFAITPTNSDISPAKVAVWLGIDSAQASLDNSEQTATRLEKMRELIEENGNTDWLYENGNIVVLNNGIEFSTTYFIMLLSLFFIGAGRYTSVDHFVAKRFLIEEKRFS | failed |
| MQRLSTEFSMNHPVRRSPIASFFVGLWDVMNFTRRLIFNLVFFGFLFMLLLVFVVALARGDGTKPLAERTTLVINPEGTLVEQFSADPVSRSLAKAVGDKSAQEVQLRDLVRVIEAAGKDRKIERVLLNLDKFQPSGFASQREVAAALQKLRASGKQIVAFSESMSQGQYLLAAQANEVYLDPMGSVLLEGLGRYRQYFREGLQDKLGVDVHLFRVGEYKSAAEPYILDAASADAKEADLFWMNDVWQRYLADVVTARKLSPAQLTAGIDTLPEGVAAAGGDLAKFALQQKLVDGLKTREEVDALLVKRGVADSDAESGFRNIGFNDYLSQLQAQDSPMDSRPQVAVVVATGEISGGEQPAGRIGGESTAALLRQARDDEKVKAVVLRVDSPGGEVFASEQIRREVVALKQAGKPVVVSMGDLAASGGYWISMNADRIYADPSTISGSIGIFGMVPNLTRALDKIGVHTDGVGTTRFAGAFDITRPLDPAAGQVIQAVINKGYADFTGKVAQARHQSVDAIDKVARGRVWSGAQAKERGLVDAFGGMSEAVADAADRAKLSRGKFRVRYVEKPATPFSQFMNGFAGSRMGAWMLSDSGMARALVARALPEVDTQLRFVESAVHDSKAGGTPVKSLAYCFCGF | failed |
